{
  "source": "paper PMC6685058",
  "about": "(2019)",
  "parents": {"B1": {"name": "AD-CEBP-1(aa 1–319) FL [C. elegans] / BD-IMA-3(aa 278–514) [C. elegans] (parent complex)", "chain 1": "MYSKLNYSHQKGDQALKHPHLVRLQQSEVRGFTDMPNNGASTSSAGSFARQDSLTIAASLQQRDRERHPVDFMETELDLGDYLQVLHDLDVPTDNVDFDDAELQKCNILYDGEHPYEQPELNGYERHVAYGTGYRVPGDYDQDGYKMNCEVKAETPDFGATKTRRAVKRPVPYDDYQKEYSEESSDMTDNDGSVDDSYFEPKSKKTKSAGLENFKPQTRARKYKLKADEEKAEPTYKLKRARNNDAVRKSRKKAKELQDKKEAEHDKMKRRIAELEGLLQSERDARRRDQDTLEQLLRNKGPMKEQRMPQRHILENFNK", "chain 2": "VVTHLVPLLGHVDVKVQTAALRAVGNIVTGTDEQTQLVLDSGVLRFMPGLLAHYKEKINKEAVWFVSNITAGNQQQVQDVFDAGIMPMIIHLLDRGDFPTQKEAAWAISNVTISGRPNQVEQMVKLGVLRPFCAMLSCTDSQIIQVVLDGINNILKMAGEAAEQVTSEIEECGGLDKIENLQNHENEDIYKLAFEIIDNFFSSDDETGNVEGAQSSAFGGDVPPVPDAPNGGWNFGK"}},
  "data": [
    {"variants_of": "B1", "assay": "yeast two-hybrid, β-galactosidase activity; parent: 110; read off a plot", "units": {"response": "Miller units"}, "values": [
      {"variant": "chain 1 K204A, chain 1 K205A, chain 1 K207A", "response": "~110"},
      {"variant": "chain 1 K239A, chain 1 R240A", "response": "~190"},
      {"variant": "chain 1 K162A, chain 1 R164A, chain 1 K168A, chain 1 R169A", "response": "~17"}
    ]}
  ]
}
